Columns and labels:
[1] = single-arm trial, all patients treated; cited from earlier work
[2] = cited from earlier work
MOLT-4 cells = assay: CD3 binding analysis by FACS on CD3 negative MOLT-4 cells; settings: MOLT-4 (CD3 negative)
Method: (§1) Both cell lines were cultured in RPMI 1640 supplemented with 1% pen/strep and 10% fetal bovine serum at a concentration of 2 x 10^5 to 1 x 10^6 cells/ml. Cells were washed in fresh medium before the experiment and 100,000 cells per well were seeded in a 96-wells plate (duplicate wells). The dilution series of 6 antibodies were made in phosphate-buffered saline (PBS). The antibodies were diluted 10 times in the cell suspension and incubated at 4° C. in the dark for 30 minutes. After incubation, the cells were washed twice in cold PBS / 0.5% BSA, and incubated with anti-HIS-PE (only for 200) or anti-IgG1-PE (for all other compounds) at 4° C., in the dark for 30 minutes. After the second incubation step, the cells were washed twice. 7AAD was added as a live-dead staining. Detection of the fluorescence in the Yellow-B channel (anti-IgG1-PE and anti-HIS-PE) and the Red-B channel (7AAD) was done with the Guava 5HT flow cytometer. Median fluorescence intensity in the Yellow-B channel (anti-IgG1-PE and anti-HIS-PE) in life cells was determined with Kaluza software.

CD3 = target: T1, CD3 (Homo sapiens, UniProt P07766); assay: CD3 binding analysis by FACS on CD3-positive Jurkat E6.1 cells; settings: for median fluorescence intensity: Jurkat E6.1 (CD3-positive), median of duplicate
T1 construct: Jurkat E6.1 cells, which express CD3 on the cell surface; endogenous in cells; host or cells: Jurkat E6.1
T1 sequence (P07766 23-207): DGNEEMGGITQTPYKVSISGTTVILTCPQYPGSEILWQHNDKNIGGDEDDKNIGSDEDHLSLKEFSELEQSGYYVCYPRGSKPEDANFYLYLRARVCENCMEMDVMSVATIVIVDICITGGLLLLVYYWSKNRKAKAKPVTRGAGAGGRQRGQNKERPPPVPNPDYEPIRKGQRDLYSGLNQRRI
T1 sequence (P04234 22-171 partner): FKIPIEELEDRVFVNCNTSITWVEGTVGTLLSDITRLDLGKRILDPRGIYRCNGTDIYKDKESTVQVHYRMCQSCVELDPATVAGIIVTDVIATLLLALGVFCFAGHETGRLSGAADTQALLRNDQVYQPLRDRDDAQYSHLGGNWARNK
T1 sequence (P09693 23-182 partner): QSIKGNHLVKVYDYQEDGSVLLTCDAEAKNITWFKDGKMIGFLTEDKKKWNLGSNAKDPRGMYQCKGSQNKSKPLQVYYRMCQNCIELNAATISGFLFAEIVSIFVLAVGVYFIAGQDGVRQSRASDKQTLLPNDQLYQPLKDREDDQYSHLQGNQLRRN
T1 sequence (P20963 22-164 partner): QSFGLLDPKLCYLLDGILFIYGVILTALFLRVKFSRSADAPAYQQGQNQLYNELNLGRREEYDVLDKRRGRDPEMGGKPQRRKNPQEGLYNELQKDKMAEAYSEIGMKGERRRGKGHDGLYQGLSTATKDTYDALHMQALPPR
Method: as §1

FcRn receptor = FcRn receptor (Homo sapiens, UniProt P55899); assay: FcRn binding analysis by Biacore (steady state); settings: pH 6.0, PBS with 0.05% tween-20
Chain of FcRn receptor (P55899 24-297 limits assumed): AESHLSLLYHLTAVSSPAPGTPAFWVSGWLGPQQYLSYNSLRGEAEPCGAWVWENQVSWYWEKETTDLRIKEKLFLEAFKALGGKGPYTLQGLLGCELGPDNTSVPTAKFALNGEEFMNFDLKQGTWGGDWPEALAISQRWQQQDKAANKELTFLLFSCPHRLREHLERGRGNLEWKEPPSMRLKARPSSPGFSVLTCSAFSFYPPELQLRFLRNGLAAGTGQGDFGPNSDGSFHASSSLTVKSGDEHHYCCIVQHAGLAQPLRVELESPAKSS
Chain of FcRn receptor (P61769 21-119 partner): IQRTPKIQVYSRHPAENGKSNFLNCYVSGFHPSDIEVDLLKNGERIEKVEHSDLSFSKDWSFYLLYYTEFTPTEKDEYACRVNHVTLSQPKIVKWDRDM
Method: Binding to the FcRn receptor was determined at pH 7.4 and pH 6.0 using a Biacore T200 (serial no. 1909913) using single-cycle kinetics and running Biacore T200 Evaluation Software V 2.0.1. A CM5 chip was coupled with FcRn in sodium acetate pH 5.5 using standard amine chemistry. Serial dilution of bispecifics and controls were measured in PBS pH 7.4 with 0.05% tween-20 (9 points; 2-fold dilution series; 8000 nM Top conc.) and in PBS pH 6.0 with 0.05% tween-20 (3 points; 2-fold dilution series; 4000 nM Top conc.). A flow rate of 30 µl/min was used and an association time of 40 seconds and dissociation time of 75 seconds. Steady state analysis was used to analyze samples.

Row | Substance | complete remission rate [1] [%] | minimal residual disease (MRD) response [1] [%] | serum half-life [2] [h] | median fluorescence intensity (MOLT-4 cells; 1 nM) | median fluorescence intensity (MOLT-4 cells; 10 nM) | median fluorescence intensity (MOLT-4 cells; 100 nM) | median fluorescence intensity (MOLT-4 cells; 1000 nM) | median fluorescence intensity (CD3; 0.32 nM) | median fluorescence intensity (CD3; 1 nM) | median fluorescence intensity (CD3; 3.16 nM) | median fluorescence intensity (CD3; 10 nM) | median fluorescence intensity (CD3; 31.6 nM) | median fluorescence intensity (CD3; 100 nM) | median fluorescence intensity (CD3; 316 nM) | median fluorescence intensity (CD3; 1000 nM) | binding to the CD3 positive Jurkat E6.1 cell line (CD3; Jurkat E6.1, result in words) | RMAX (RU) (FcRn receptor)
1 | blinatumomab | 32 | 31 | 2.11 |  |  |  |  |  |  |  |  |  |  |  |  |  | 
2 | rituximab |  |  |  | 78.96 | 75.92 | 68.42 | 67.39 | 58.28 | 56.55 | 55.37 | 60.83 | 58.71 | 55.49 | 54.99 | 66.36 | not | 96.4
